B1: Hairpin Ribozyme (parent)
chain: GUCCUCUUUCACGUGCGCGUGAAAGAGAGAAGUGAACCAGAGAAACACACGUUGUGGUAUAUUACCUGGUA

Variants of: B1
Test: self-cleavage, relative activity (ratio to wild type); higher = more cleavage; co-transcriptional

Row | Variant | self-cleavage
1 | GUCUUCUUUCACGUGCGCGUGAAAGAGAGAAGUGAACCAGAUAAACACACGUUGUGGUAUAUUACCUGGUA | 0.129
2 | GUCUUCUUUCACGUGCGCGUGAAAGAGAGAGGUGAACCAGAGAAACACACGUUGUGGUAUAUUACCUGGUA | 0.0741
3 | GUCUUCUUUCACGUGCGCGUGAAAGAGAGAAGUGAACCAGAGAAACACACGUUGUGGUAUAUUCCCUGGUA | 0.181
4 | GUCUUCUUUCACGUGCGCGUGAAAGAGAGAAGUGAACCAGAGAAACACACGUUGUGGUAUAUUGCCUGGUA | 0.25
5 | GUCUUCUUUCACGUGCGCGUGAAAGAAAGAAGUGAACCAGAGAAACACACGUUGUGGUAUAUUACCUGGUA | 0.722
6 | GUCUUCUUUCACGUGCGCGUGAAAGAGAGAAGUGAACCAGAGACACACACGUUGUGGUAUAUUACCUGGUA | 0.102
7 | GUCUUCUUUCACGUGCGCGUGAAAGUGAGAAGUGAACCAGAGAAACACACGUUGUGGUAUAUUACCUGGUA | 0.156
8 | GUCUUCUUUCACGUGCGCGUGAAAGAGAGUAGUGAACCAGAGAAACACACGUUGUGGUAUAUUACCUGGUA | 0.13
9 | GUCUUCUUUCACGUGCGCGUGAAAGAGAGAAGUGGACCAGAGAAACACACGUUGUGGUAUAUUACCUGGUA | 0.304
10 | GUCCACUUUCGCGUGCGCGUGAAAGAGAGAAGUGAACCAGAGAAACACACGUUGUGGUAUAUUACCUGGUA | 0.324
11 | GUCUUCUUACACGUGCGCGUGAAAGAGAGAAGUGAACCAGAGAAACACACGUUGUGGUAUAUUACCUGGUA | 0.202
12 | GUCCACUUUCACGUGCGCGUGAAAGAGAGAAGUGAACCAGGGAAACACACGUUGUGGUAUAUUACCUGGUA | 0.162
13 | GUCUUCUUUCACUUGCGCGUGAAAGAGAGAAGUGAACCAGAGAAACACACGUUGUGGUAUAUUACCUGGUA | 0.314
14 | GUCUUCUUUCACCUGCGCGUGAAAGAGAGAAGUGAACCAGAGAAACACACGUUGUGGUAUAUUACCUGGUA | 0.282
15 | GUCUUCUUUCACGUCCGCGUGAAAGAGAGAAGUGAACCAGAGAAACACACGUUGUGGUAUAUUACCUGGUA | 0.232
16 | GUCUUCUUUCACGUACGCGUGAAAGAGAGAAGUGAACCAGAGAAACACACGUUGUGGUAUAUUACCUGGUA | 0.33
17 | GUCUUCUUUCACGUUCGCGUGAAAGAGAGAAGUGAACCAGAGAAACACACGUUGUGGUAUAUUACCUGGUA | 0.32
18 | GUCCACUUUCACGUGCGCGUGAAAGAGAGAAGUGAUCCAGAGAAACACACGUUGUGGUAUAUUACCUGGUA | 0.255
19 | GUCUUCUUUCACGUGCGCGUGAAAGAGAGAAGUGAACCAGAGAAACACAGGUUGUGGUAUAUUACCUGGUA | 0.11

Row | Variant | self-cleavage
20 | GUCUUCUUUCAGGUGCGCGUGAAAGAGAGAAGUGAACCAGAGAAACACACGUUGUGGUAUAUUACCUGGUA | 0.259
21 | GUCUUCUUUCACGUGCGCGUGAAAGAGAGAAGUGAACCAGAGAAACACACGAUGUGGUAUAUUACCUGGUA | 0.295
22 | GUCUUCUUUCACGUGCGCGUGAAAGAGAGAAGUUAACCAGAGAAACACACGUUGUGGUAUAUUACCUGGUA | 1.12
23 | GUCUUCUUUCACGUGCGCGUGAAAGAGAGAAGUCAACCAGAGAAACACACGUUGUGGUAUAUUACCUGGUA | 1.03
24 | GUCUUCUUUCACGUGCGCGUGAAAGAGAGAAGCGAACCAGAGAAACACACGUUGUGGUAUAUUACCUGGUA | 0.237
25 | GUCUUCUUUCACGUGCGCGUGAAAGAGAGAAGUGAACCAGAGAAACAGACGUUGUGGUAUAUUACCUGGUA | 0.123
26 | GUCUUCUUUCACGUGCGCGUGAAAGAGAGAAGUGAACCAGAGAAACAAACGUUGUGGUAUAUUACCUGGUA | 0.114
27 | GUCUUCUUUCACGUGCGCGUGAAAGAGAGAAGUGAACCAGAGAAACACACGUUGUCGUAUAUUACCUGGUA | 0.214
28 | GUCUUCUUUCACGUGCGCGUGAAAGAGAGAAGUGAACCAGAGAAACACACGUUGUUGUAUAUUACCUGGUA | 0.126
29 | GUCUUCUUUCACGUGCGCGUGAAAGAGAGAAGUGAACCAGAGAAAUACACGUUGUGGUAUAUUACCUGGUA | 0.152
30 | GUCUUCUUUCACGUGCGCGUGAAAGAGAGAAGUGAACCAGAGAAACACACGUUGUGGUAUAUUACCUUGUA | 0.109
31 | GUCCACUUUCACGUGCGCGUGAAAGAGAGAAGUGCACCAGAGAAACACACGUUGUGGUAUAUUACCUGGUA | 0.364
32 | GUCUUCUUUCACGUGGGCGUGAAAGAGAGAAGUGAACCAGAGAAACACACGUUGUGGUAUAUUACCUGGUA | 0.243
33 | GUCUUCUUUCACGUGCGCGUGAAAGAGAGAAGUGACCCAGAGAAACACACGUUGUGGUAUAUUACCUGGUA | 0.145
34 | GUCUUCUUUCACGUGCGCGUGAAAGAGAGAAGUGAGCCAGAGAAACACACGUUGUGGUAUAUUACCUGGUA | 0.465
35 | GUCUUCUUUCACGUGCGCGUGAAAGAGAGAAGUGAUCCAGAGAAACACACGUUGUGGUAUAUUACCUGGUA | 0.227
36 | GUCUUCUUUCACGUGCGCGUGAAAGAGAGAAGUGAACCAGAGAAACACACGUUGUGGUAUAUUACUUGGUA | 0.234
37 | GUCUUCUUUCACGUGCGCGUGAAAGAGAGAAGUGAACCAUAGAAACACACGUUGUGGUAUAUUACCUGGUA | 0.0478
38 | GUCUUCUUUUACGUGCGCGUGAAAGAGAGAAGUGAACCAGAGAAACACACGUUGUGGUAUAUUACCUGGUA | 0.224

From the RNAGym collection of RNA variant scans (doi:10.7554/elife.80360)
